Assay results from the Human Domainome abundance scans (Beltran et al. 2025).

B1: POU domain, class 2, transcription factor 2, residues 200 to 269; numbered along this chain, P09086 (parent)
chain: LEELEQFARTFKQRRIKLGFTQGDVGLAMGKLYGNDFSQTTISRFEALNLSFKNMCKLKPLLEKWLNDAE

Variants of: B1
Experiment: abundance fitness (aPCA) (normalised: wild type 0, dead -1); higher = more abundant; growth selection in yeast, the domain comes from the species named
Conditions: Homo sapiens

Abundance fitness: each site, then its substitutions
C56: Y -0.196, T 0.053, N -0.064, A -0.022, I -0.09, Q 0.062, G -0.055, L 0.007, D -0.052, E 0.002, W -0.046, S -0.029, R 0.014, V -0.029, K 0.015, H -0.082, F -0.034
S51: C -0.172, N -0.037, K -0.019, I -0.684, L -0.785, P 0.006, G -0.05, M -0.317, T 0.007, W -0.907, R -0.102, Y -0.461, E 0.025, A -0.117, H -0.049, F -0.832, V -0.507, D 0.06
F37: Y -0.048, W -0.012
A47: S 0.053, D 0.158, F -0.173, E 0.082, L -0.032, M -0.036, I -0.037, P -0.641, H -0.144, N -0.019, Y -0.26, K -0.054, Q 0.035, W -0.325, G -0.002, V -0.125, R -0.085, T 0.017
E46: V -0.79, L -0.904, A -0.765, Q -1.08, D -0.942, W -1.02, N -0.973, S -1.05, F -0.996, K -0.431, C -1.06, T -0.87, I -0.956, P -0.885, G -0.942, H -0.944, Y -0.994, R -0.993
L48: P -0.472, N -0.026, Q -0.011, K 0.07, W -0.158, M -0.031, A 0.053, C 0.049, S 0.028, F 0.056, V 0.018, E 0.014, Y -0.329, I -0.029, H 0.023, D -0.27
K57: C -0.058, A -0.057, G 0.002, E -0.05, D -0.47
R44: W -0.251, Y -0.033, S 0.065, D -0.06, L -0.025, M -0.006, V -0.523, G 0.008, K 0.033, P -0.936, E 0.088, Q 0.125, F -0.22, N -0.482, C -0.057, A 0.04, I -0.926, H -0.168
I42: M -0.122, D -0.857, W -0.818, H -1.01, Y -0.511, E -0.758, A -0.609, S -0.685, V -0.033, R -1.11, P -0.857, Q -0.559, K -0.979, L -0.073, T -0.552, F -0.375, C -0.375, G -1.02
N49: I -0.037, R -0.052, W -0.309, D 0.049, P -0.671, V -0.091, K -0.007, Y -0.249, F -0.219, Q 0.053, C 0.012, G -0.004, A -0.026, S -0.005, L -0.032, E 0.07, H -0.018
F45: M -0.109, G -1.05, W -0.205, D -0.916, Q -0.977, H -1.04, T -0.989, E -1.09, V -0.371, Y -0.158, K -0.906, C -0.752, I -0.546, R -0.965, A -0.78
N54: A -0.046, F 0.018, I -0.272, D 0.101, K -0.017, S 0.042, C -0.193, H 0.091, Y 0.09, P -0.264, R -0.005, W -0.081, E 0.058, T 0.023, V 0.032, L -0.097, M 0.103, G -0.017, Q 0.11
F52: P -0.115, N -0.069, W -0.024, M -0.105, Q -0.087, A -0.038, T 0.069, H -0.2, Y -0.096, K -0.031, G -0.053, V -0.035, R 0.032, L -0.014, E -0.044, I -0.028, C -0.062
K53: E 0.003, L -0.015, G 0.002, I -0.073, P -0.055, N -0.236, S 0.005, D -0.048, M -0.055, Y -0.092, W -0.079, R -0.022, H 0.016, T 0.064, C -0.098, V -0.014, F -0.044, A 0.004, Q 0.028
L50: F -0.064, K -0.658, T -0.054, S -0.155, P -0.674, V -0.036, W -0.183, I -0.039, D -0.089, M -0.049, R -0.625, A -0.103, N -0.53, H -0.089, E 0.008, G -0.116, C -0.078, Y -0.174
T40: M -0.058, R -0.021, E -0.002, F -0.041, K 0.232, I -0.285, Y 0.031, N -0.107, G -0.036, C -0.038, H -0.161, D 0.02, S 0.032, Q 0.009, P -0.072, L -0.078, V 0.068
Q39: A -0.032, F -0.022, I -0.017, E 0.01, T 0.042, D 0.017, P 0.035, N -0.306, V -0.002, C -0.077, R -0.019, K -0.029, L -0.046, S 0.005, H -0.11, M -0.024, G -0.027
T41: H 0.023, S -0.059, F -0.114, M 0.04, V 0.024, A -0.048, K -0.09, C 0.094, L -0.041, R -0.179, N -0.062, D 0.029, E -0.029, I -0.108, Y -0.078, G -0.193, Q -0.061, W -0.014
S38: I -0.107, D 0.241, N 0.044, V -0.081, A -0.014, M -0.085, W -0.157, R -0.037, T -0.004, Q -0.054, G 0.025, P -0.065, Y -0.234, K -0.055, E -0.015, C -0.023
S43: N -0.046, D -0.049, W -0.047, I -0.024, G 0, F -0.227, P -0.002, E -0.018, C -0.149, Q 0.095, V -0.098, K 0.062, H -0.034, T -0.05, A 0.005, L -0.07
M55: T -0.213, W -0.24, A -0.022, H -0.164, D -0.435, F -0.127, L -0.021, Y -0.135, C -0.439, E -0.512, N -0.463, R -0.502, G -0.097, V -0.142, I -0.175
